Results as given in PMC5855949.
Like-named read-outs stand apart in the source and are kept apart here.

Key:
[1] = molecular target: T1, lambda cI repressor, hexa-histidine-tagged (bacteriophage lambda, UniProt P03034 1-237); test: filter binding
[2] = molecular target: T1, lambda cI repressor, …; test: filter binding; remark: listed apart in the source

T1 sequence (P03034 whole entry): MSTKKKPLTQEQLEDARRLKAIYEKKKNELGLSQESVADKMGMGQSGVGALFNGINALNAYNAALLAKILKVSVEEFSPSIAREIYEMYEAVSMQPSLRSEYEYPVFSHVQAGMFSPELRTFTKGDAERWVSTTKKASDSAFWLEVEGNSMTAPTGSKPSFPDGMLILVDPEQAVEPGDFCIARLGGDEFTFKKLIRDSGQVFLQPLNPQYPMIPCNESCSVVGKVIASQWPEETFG

B1: aptamer Tarap (Guu(0/-7)) (structured_RNA)
RNA: GGGAUCGACAGGGCUCCCGUUUGGCUCGGCGAAGAUCGCCUGUACUUUGGAAAGCCGAGUCGU
B1 was tested, and the Kd [1] was 518 ± 96 nM and the Kd [2] was 264 ± 24 nM.
